Experimental data taken from patent US20260146069A1 (PAPYRUS THERAPEUTICS, published 2026).

Target: the molecule itself
Assay: Western blot (8% SDS-PAGE, goat anti-human OPCML) of Ni-NTA purified protein; self-association
Method: Samples were separated on an 8% SDS-PAGE gel, transferred to a nitrocellulose or polyvinylidene fluoride (PVDF) membrane (Millipore Corporation), blocked, and incubated with polyclonal goat anti-human OBCAM (OPCML; R&D Systems) as a primary antibody, diluted 1:1000, at 4° C. overnight. After washing, the membrane was incubated with HRP-labeled anti-goat as the secondary antibody, diluted 1:5000. After final washings, proteins were detected using Immobilon Western Chemiluminescent HRP substrate system (Millipore) and GE Healthcare Amersham “Hyperfilm” ECL film with a Kodak SRX2000 (Rochester, NY, USA) developer machine.

B1: rOPCML-Fc protein (PYTX-004 construct) (Fc fusion)
chain: ATFPKAMDNVTVRQGESATLRCTIDDRVTRVAWLNRSTILYAGNDKWSIDPRVIILVNTPTQYSIMIQNVDVYDEGPYTCSVQTDNHPKTSRVHLIVQVPPQIMNISSDITVNEGSSVTLLCLAIGRPEPTVTWRHLSVKEGQGFVSEDEYLEISDIKRDQSGEYECSALNDVAAPDVRKVKITVNYPPYISKAKNTGVSVGQKGILSCEASAVPMAEFQWFKEETRLATGLDGMRIENKGRMSTLTFFNVSEKDYGNYTCVATNKLGNTNASITLYGPGGGGLEVLFQGPGGSTKGPSVFLFPPKPKDTLMISRTPEVTCVVVDVSHEDPEVKFNWYVDGVEVHNAKTKPREEQYNSTYRVVSVLTVLHQDWLNGKEYKCKVSNKALPAPIEKTISKAKGQPREPQVYTLPPSRDELTKNQVSLTCLVKGFYPSDIAVEWESNGQPENNYKTTPPVLDSDGSFFLYSKLTVDKSRWQQGNVFSCSVMHEALHNHYTQKSLSLSPGKRTGHHHHHH
notes: Expressed in HEK-293 clone 18G9 and purified on Ni-NTA; After purification it reports a 160 kDa form and an 80 kDa monomer; also called rOPCML-Fc PYTX-004; OPCML-Fc PYTX-004
binding result: binds
